Measured values published in paper PMC2715226.

How the values were obtained:
[1] = biological target: T1, Ets-1 p42 (human, UniProt P14921-2 1-354); test: not stated
T1 sequence: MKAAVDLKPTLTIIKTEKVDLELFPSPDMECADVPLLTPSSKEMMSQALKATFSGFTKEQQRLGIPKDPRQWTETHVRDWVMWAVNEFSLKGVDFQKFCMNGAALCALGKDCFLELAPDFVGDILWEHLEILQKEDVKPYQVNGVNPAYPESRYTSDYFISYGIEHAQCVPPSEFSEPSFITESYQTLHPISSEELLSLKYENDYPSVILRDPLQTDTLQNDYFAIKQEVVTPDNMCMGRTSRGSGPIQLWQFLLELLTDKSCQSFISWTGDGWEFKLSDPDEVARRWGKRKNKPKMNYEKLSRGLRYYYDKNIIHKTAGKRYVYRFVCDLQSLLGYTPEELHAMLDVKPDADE

[2] = biological target: T1, Ets-1 p42; test: EMSA
[3] = biological target: T2, p51ΔN331 (human, UniProt P14921 331-441); test: EMSA
T2 sequence: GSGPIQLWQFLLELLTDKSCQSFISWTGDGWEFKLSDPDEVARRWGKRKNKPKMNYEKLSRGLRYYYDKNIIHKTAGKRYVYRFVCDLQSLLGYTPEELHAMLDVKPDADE

[4] = biological target: T3, p51ΔC415 (human, UniProt P14921 1-415); test: EMSA
T3 sequence: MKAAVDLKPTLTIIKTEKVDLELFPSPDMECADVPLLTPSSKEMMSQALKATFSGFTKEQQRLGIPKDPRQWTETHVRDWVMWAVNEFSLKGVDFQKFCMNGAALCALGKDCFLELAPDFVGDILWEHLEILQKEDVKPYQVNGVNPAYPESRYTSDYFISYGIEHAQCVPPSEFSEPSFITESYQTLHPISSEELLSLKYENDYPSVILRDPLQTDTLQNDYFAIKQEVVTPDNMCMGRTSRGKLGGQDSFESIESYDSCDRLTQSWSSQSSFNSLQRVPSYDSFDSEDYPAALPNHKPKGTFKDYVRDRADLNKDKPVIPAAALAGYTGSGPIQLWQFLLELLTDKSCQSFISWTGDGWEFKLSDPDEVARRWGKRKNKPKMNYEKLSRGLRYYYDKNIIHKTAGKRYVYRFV

[5] = biological target: T4, p51(301-415) (human, UniProt P14921 301-415); test: EMSA
T4 sequence: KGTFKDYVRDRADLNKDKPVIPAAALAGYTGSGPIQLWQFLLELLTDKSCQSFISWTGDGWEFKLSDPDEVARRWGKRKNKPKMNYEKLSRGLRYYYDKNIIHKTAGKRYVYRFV

[6] = biological target: T5, p42ΔC328 (human, UniProt P14921-2 1-328); test: EMSA
T5 sequence: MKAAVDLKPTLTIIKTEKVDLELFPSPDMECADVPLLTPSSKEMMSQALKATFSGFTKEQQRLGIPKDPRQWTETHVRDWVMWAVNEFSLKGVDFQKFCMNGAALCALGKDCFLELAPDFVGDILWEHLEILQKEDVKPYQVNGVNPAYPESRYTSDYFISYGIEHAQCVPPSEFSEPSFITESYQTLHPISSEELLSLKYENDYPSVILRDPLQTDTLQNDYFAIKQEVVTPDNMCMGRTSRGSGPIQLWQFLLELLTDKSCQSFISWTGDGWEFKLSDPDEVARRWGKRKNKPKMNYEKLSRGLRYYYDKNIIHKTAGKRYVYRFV

[7] = biological target: T6, Ets-1 DBD (human, UniProt P14921 331-415); test: EMSA
T6 sequence: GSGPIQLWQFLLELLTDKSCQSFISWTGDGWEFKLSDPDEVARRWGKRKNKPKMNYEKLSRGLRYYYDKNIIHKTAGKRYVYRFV

B1: WT (dsDNA)
DNA 1: ACCAAGACAGGAAGCACTTCCTGGAGATTA
DNA 2: TAATCTCCAGGAAGTGCTTCCTGTCTTGGT
[1]
  Kd: ~20 nM

B2: IP (dsDNA)
DNA 1: ACCAAGAGCTTCCTGCAGGAAGTGAGATTA
DNA 2: TAATCTCACTTCCTGCAGGAAGCTCTTGGT
[2]
  binding result: binds

B3: WT+4 (dsDNA)
DNA 1: ACCAAGACAGGAAGCACGCACTTCCTGGAGATTA
DNA 2: TAATCTCCAGGAAGTGCGTGCTTCCTGTCTTGGT
[3]
  binding result: binds
[4]
  binding result: binds
[5]
  binding result: binds
[6]
  binding result: binds
[7]
  binding result: binds
[2]
  binding result: binds

B4: M1 (dsDNA)
DNA 1: ACCAAGACAAAAAGCACTTCCTGGAGATTA
DNA 2: TAATCTCCAGGAAGTGCTTTTTGTCTTGGT
[1]
  Kd: ~20 nM

B5: M2 (dsDNA)
DNA 1: ACCAAGACAGGAAGCACTTTTTGGAGATTA
DNA 2: TAATCTCCAAAAAGTGCTTCCTGTCTTGGT
[1]
  Kd: ~20 nM
